In paper PMC4643126, “On the Ancestral UDP-Glucose Pyrophosphorylase Activity of GalF from Escherichia coli” (Frontiers in Microbiology, 2015):
Numbering of substitutions follows the chain as printed. Names may count otherwise.

B1: GalU (UDP-glucose pyrophosphorylase) from Escherichia coli (enzyme, Escherichia coli K-12, UniProt P0AEP3 1-302, looked up)
chain: MAAINTKVKKAVIPVAGLGTRMLPATKAIPKEMLPLVDKPLIQYVVNECIAAGITEIVLVTHSSKNSIENHFDTSFELEAMLEKRVKRQLLDEVQSICPPHVTIMQVRQGLAKGLGHAVLCAHPVVGDEPVAVILPDVILDEYESDLSQDNLAEMIRRFDETGHSQIMVEPVADVTAYGVVDCKGVELAPGESVPMVGVVEKPKADVAPSNLAIVGRYVLSADIWPLLAKTPPGAGDEIQLTDAIDMLIEKETVEAYHMKGKSHDCGNKLGYMQAFVEYGIRHNTLGTEFKAWLEEEMGIKK
notes: GalU, E. coli K-12, gene galU (909 bp) amplified from genomic DNA, codes for 302 amino acids; expressed from pET28c as an untagged protein; also called UDP-Glc PPase; UTP:glucose-1-phosphate uridylyltransferase; source: E. coli BL21 Star (DE3), purified (DEAE-Sepharose)
B2: GalU_(K202A) (enzyme, Escherichia coli K-12, UniProt P0AEP3 1-302, looked up)
chain: B1 chain with K202A
notes: GalU, E. coli K-12, 302 amino acids, untagged, with K202A; Mutagenesis on the plasmid of the wild-type enzyme; source: E. coli BL21 Star (DE3), purified (DEAE-Sepharose)
B3: GalU_(T20M/R21H) (enzyme, Escherichia coli K-12, UniProt P0AEP3 1-302, looked up)
chain: B1 chain with T20M, R21H
notes: GalU, E. coli K-12, 302 amino acids, untagged, with T20M and R21H; Mutagenesis on the plasmid of the wild-type enzyme; also called GalU T20M/R21H double mutant; source: E. coli BL21 Star (DE3), purified (DEAE-Sepharose)

Target: the molecule itself
Experiment: SEC; gel filtration of the purified protein on Superdex 200 HR 10/30 in 25 mM Tris-HCl pH 8.0, 100 mM NaCl, 0.1 mM EDTA; mass from a calibration plot of standards

Protein | stoichiometry N
B1 | 4
B2 | 4
B3 | 4
